Data: patent publication US20100254979A1 (CISTHERA, published 2010)

T1: mouse PAI-1 (mouse, UniProt P22777 23-402, limits assumed, n-terminal biotin label in the P-ELISA)
T1 construct: also called murine PAI-1
T1 sequence (looked up): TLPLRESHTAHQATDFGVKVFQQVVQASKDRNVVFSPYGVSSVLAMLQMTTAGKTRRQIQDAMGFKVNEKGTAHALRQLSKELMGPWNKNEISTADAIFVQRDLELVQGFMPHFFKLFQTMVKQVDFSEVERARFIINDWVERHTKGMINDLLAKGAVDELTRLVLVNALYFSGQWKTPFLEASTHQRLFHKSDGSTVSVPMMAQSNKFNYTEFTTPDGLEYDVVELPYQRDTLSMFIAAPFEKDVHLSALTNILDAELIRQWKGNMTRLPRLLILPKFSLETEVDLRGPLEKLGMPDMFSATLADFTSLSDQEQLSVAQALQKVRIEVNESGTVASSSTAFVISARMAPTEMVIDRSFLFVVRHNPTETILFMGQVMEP

T2: rat PAI-1 (rat, UniProt P20961 24-402, n-terminal biotin label in the P-ELISA)
T2 sequence (looked up): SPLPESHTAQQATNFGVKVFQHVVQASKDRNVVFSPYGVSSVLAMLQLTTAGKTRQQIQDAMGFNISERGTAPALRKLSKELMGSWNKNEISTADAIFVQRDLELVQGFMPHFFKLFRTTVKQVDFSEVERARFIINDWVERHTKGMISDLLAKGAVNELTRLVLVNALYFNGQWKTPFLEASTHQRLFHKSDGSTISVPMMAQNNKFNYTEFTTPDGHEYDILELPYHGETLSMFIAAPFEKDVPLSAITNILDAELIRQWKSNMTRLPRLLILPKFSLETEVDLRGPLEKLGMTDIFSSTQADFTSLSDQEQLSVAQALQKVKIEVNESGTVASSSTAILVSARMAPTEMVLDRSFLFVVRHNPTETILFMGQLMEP


What was measured:
[1] = target: PAI-1 (antigen of Example 11, species not stated) (Homo sapiens (Human)) (UniProt P05121); assay: biosensor kinetics, 25 C, global 1:1 fit
[2] = target: PAI-1 (immobilised antigen of the P-ELISA of FIG. 13, species not stated); assay: P-ELISA on immobilised biotinylated PAI-1 (species not stated), A450; antibody spiked into plasma with EDTA
[3] = target: PAI-1 (immobilised antigen of the P-ELISA of FIG. 13, species not stated); assay: P-ELISA on immobilised biotinylated PAI-1 (species not stated), A450; antibody without plasma, with or without EDTA
[4] = target: T1, mouse PAI-1; assay: P-ELISA
[5] = target: human PAI-1 (plasminogen activator inhibitor-1) (human, UniProt P05121 24-402, n-terminal biotin label in the P-ELISA); assay: cell-based or functional assay
[6] = target: PAI-1 (antigen of Example 11, species not stated) (Homo sapiens (Human)) (UniProt P05121); assay: biosensor kinetics, mAb captured on anti-human IgG surface at 5 densities, 25 C, global 1:1 fit
[7] = target: T2, rat PAI-1; assay: P-ELISA: biotinylated PAI-1 (panel title: Rat PAI-1) on Neutravidin-coated plate, HRP-conjugated secondary antibody, O.D. 450
Procedure: All reagents are brought to room temperature (18-23° C.) and dilutions are made in Wash Buffer (1× TBS, 0.1% BSA, 0.05% Tween). Briefly, protocol steps are as follows: [0952] Add 100 μL of Neutravidin™ Pierce #31000 (0.5 μg/ml in TBS) to 96-well Immulon-4 plates. [0953] Incubate 1 hour at room temperature (RT). [0954] Wash wells 3 times with 200 μl Wash Buffer. [0955] Add 50 μL of biotinylated biomolecule (0.06 nM) Incubate 1 hour at RT. [0956] Wash plate 3 times in Wash Buffer. [0957] Add 100 μL of 1° Ab Incubate 30 min RT [0958] Wash plate 3 times in Wash Buffer. [0959] Add 50 μL of 2° Ab-HRP (1:10,000) Incubate 30 min RT [0960] Wash plate 4 times in Wash Buffer. [0961] Add 100 μl TMB Reagent (substrate). Incubate at room temperature. [0962] Add 100 μL of 2 M Sulfuric Acid to stop development of the substrate. [0963] Plates were read using a 450 nm filter with a 615-620 nm filter as the reference.
Binding of CT140 to rat, mouse, rabbit and human PAI-1 was determined by P-ELISA (see FIG. 12). The relative affinity of CT140 is human=rabbit>mouse>rat (FIG. 12A, FIG. 12B, FIG. 12C and FIG. 12D, respectively).

Sequence of PAI-1 (immobilised antigen of the P-ELISA of FIG. 13, species not stated) (P05121 24-402): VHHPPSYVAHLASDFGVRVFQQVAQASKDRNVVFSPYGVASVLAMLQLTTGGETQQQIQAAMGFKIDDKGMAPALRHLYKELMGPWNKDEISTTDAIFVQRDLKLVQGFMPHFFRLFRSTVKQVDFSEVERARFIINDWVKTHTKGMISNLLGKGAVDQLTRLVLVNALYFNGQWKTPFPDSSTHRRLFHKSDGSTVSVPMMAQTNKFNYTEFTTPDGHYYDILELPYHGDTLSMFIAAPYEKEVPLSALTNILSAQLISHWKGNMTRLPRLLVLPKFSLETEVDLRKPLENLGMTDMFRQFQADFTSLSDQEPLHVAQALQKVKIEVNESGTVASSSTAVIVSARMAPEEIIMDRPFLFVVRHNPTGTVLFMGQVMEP
Sequence of human PAI-1 (plasminogen activator inhibitor-1) (P05121 24-402 limits assumed): as the sequence (P05121 24-402) above

Binder | Kd [1] [nM] | koff [1] [s⁻¹] | kon [1] [M⁻¹ s⁻¹] | EC50 (read off the curve) [2] [µg/mL] | EC50 (read off the curve) [3] [µg/mL] | fold greater affinity relative to the parent mouse anti-PAI-1 [4] [fold] | EC50 (read off the curve) [5] [µg/mL] | Kd [6] [nM] | koff [6] [s⁻¹] | kon [6] [M⁻¹ s⁻¹] | binding result [7]
murine monoclonal antibody 33B8 (MA-33B8) (antibody, V domains shown) VH: QIQLVQSGPELKKPGKTVTISCKASGYTFTNYGMNWVKQAPGKGLKWMGWINTYTGEPTYTDDFKGRFAFSLDTSASTAYLQISNLKNEDTATYFCAKDVSGFVFDYWGQGTTVTVSS VL: DIVMTQSPSSLAVSVGEKVTMSCKSSQSLLNIIKQKNCLAWYQQKPGQSPKLLIYWASTRESGVPDRFTGSGSGTDFTLTISSVKAEDLAVYYCQQYYSYPYTFGGGTKLEIK | 8.01 | 0.00314 | 393000 | 0.4 | 0.1 |  |  |  |  |  | 
CT140 (humanized 33B8 anti-PAI-1 antibody, IgG4 with IgG1 hinge) (antibody, V domains shown, The IgG4 hinge was replaced by that of IgG1; also called hP-1; humanized mAb CT140) VH: QVQLVQSGAEVKKPGASVKVSCKASGYTFTNYGMNWVRQAPGQGLEWMGWINTYTGEPTYTDDFKGRFTMTLDTSISTAYMELSRLRSDDTAVYYCAKDVSGFVFDYWGQGTLVTVSS VL: DIVMTQSPDSLAVSLGERATINCKSSQSLLNIIKQKNCLAWYQQKPGQPPKLLIYWASTRESGVPDRFSGSGSGTDFTLTISSLQAEDVAVYYCQQYYSYPYTFGQGTKLEIKR |  |  |  |  |  | > 10 | ~10 | 0.015 | 8e-06 | 530000 | binds
